According to patent US20120195897A1 (US Dept. of Health and Human Services, published 2012):

Target: T1, IGF ligand 2 (IGF-2) (human, UniProt P01344 25-91)
T1 construct: Used as antigen in ELISA and as stimulus (10 nM) on MCF-7 cells; also called insulin-like growth factor 2
Test: ELISA

T1 sequence (P01344 25-91 limits assumed): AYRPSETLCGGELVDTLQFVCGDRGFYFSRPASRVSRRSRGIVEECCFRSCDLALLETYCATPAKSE

B1: m636 (VHH)
VHH: QVQLVQSGGGLVQPGGSLRLSCAASYYSLQHDNFPYTFMSWVRQAPGQRLEWVSGISGSGGSTYYADSVKGRFTISRDNSKNTLYLQMNTLRAEDTAMYYCARIRWLQDLDYWGQGTLVTVSS
notes: Human VH single domain antibody (dAb) selected from phage library m91; also called dAb m636; IGF-2 dAb
B1: binds.
